According to patent publication US20200225234A1 (ONCOTAG DIAGNOSTICS, published 2020):

How the values were obtained:
[1] = target: T1, MRS fragment peptide of aa 851-880 (human); assay: ELISA, peptide coated at 300 ng/well, antibody at 10 nM
T1 peptide: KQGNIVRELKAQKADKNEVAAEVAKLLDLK
Protocol: The 8A12 antibody as a primary antibody was diluted to 10 nM (1× PBST-Tween 0.05%), and HRP-conjugated Goat anti-mouse IgG (Thermo) as a secondary antibody was diluted at 1:10000 (1×PBST-Tween0.05%), and the absorbance was measured at 450 nm.

His-KRS = target: T2, His-KRS (UniProt Q15046 1-597); assay: ELISA, coated His-KRS, absorbance at 450 nm
T2 construct: not shown: His tag
T2 sequence (Q15046 whole entry): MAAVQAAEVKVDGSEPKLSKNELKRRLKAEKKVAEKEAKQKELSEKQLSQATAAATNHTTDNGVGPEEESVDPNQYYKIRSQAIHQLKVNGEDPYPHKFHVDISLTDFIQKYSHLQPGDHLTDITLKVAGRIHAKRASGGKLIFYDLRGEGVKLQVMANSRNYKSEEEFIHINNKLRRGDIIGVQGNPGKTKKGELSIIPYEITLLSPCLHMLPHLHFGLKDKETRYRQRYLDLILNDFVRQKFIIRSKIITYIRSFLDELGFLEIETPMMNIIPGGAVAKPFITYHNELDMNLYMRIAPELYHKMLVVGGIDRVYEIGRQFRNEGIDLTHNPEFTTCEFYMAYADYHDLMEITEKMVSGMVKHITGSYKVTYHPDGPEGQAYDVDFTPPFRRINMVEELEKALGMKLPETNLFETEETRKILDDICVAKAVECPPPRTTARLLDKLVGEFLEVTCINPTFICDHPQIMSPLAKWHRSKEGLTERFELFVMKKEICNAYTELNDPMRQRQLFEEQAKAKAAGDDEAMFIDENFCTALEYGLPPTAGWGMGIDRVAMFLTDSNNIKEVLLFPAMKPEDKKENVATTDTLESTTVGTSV
Protocol: (§1) On a 96-well plate (Corning 3690 flat bottom, 96-well half-area plates), MRS proteins (His-MRS, MRS full) and other ARS proteins (DX2 tag free, 34S-DX2, 34S-AIMP2, His-CRS, His-AIMP1, His-GRS, His-WRS, His-KRS) were each coated at a concentration of 1 μg/ml. 8A12 antibody was added at a concentration of 500 ng/ml to the 96-well plate coated with coated with each of the ARS proteins, followed by incubation for 1 hour. Thereafter, HRP-conjugated anti-mouse IgG secondary antibody was added, followed by incubation for 1 hour, and the absorbance at 450 nm was measured by ELISA. As a substrate, 3,3′,5,5′-tetramethylbenzidine (TMB) was used.

His-WRS = target: T3, His-WRS (UniProt P23381 1-471, limits assumed); assay: ELISA, coated His-WRS, absorbance at 450 nm
T3 construct: not shown: His tag
T3 sequence (looked up): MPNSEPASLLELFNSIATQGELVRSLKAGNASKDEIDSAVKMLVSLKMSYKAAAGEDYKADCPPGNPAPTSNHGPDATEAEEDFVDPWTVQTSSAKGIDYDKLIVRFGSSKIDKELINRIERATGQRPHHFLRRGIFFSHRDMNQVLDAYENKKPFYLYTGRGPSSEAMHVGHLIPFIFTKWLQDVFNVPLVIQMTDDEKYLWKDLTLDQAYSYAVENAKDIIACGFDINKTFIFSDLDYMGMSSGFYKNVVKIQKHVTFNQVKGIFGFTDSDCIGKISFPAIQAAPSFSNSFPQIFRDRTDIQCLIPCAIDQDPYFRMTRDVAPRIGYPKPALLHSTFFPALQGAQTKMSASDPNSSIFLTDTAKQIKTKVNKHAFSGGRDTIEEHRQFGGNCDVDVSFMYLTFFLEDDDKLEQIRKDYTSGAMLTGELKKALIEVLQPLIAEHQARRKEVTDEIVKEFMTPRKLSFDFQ
Protocol: as §1

[2] = target: T4, aminoacyl-tRNA synthetase complex-interacting multifunctional protein 3 (AIMP3) (Homo sapiens (Human), UniProt O43324 1-174, limits assumed); assay: SPR, AIMP3 protein on a CM5 chip, 8A12 antibody as analyte at 0.20 to 200 nM
T4 construct: The construct of the AIMP3-alone protein is not described; also called AIMP3 protein
T4 sequence: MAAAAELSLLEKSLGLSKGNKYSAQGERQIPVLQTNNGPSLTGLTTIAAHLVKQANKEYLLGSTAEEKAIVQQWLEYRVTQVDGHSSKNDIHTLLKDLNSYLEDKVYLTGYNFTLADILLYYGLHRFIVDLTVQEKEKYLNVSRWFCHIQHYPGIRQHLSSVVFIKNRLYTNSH
Protocol: (§2) To investigate MRS-specific affinity of the 8A12 antibody, a surface plasmon resonance (SPR) test was performed using MRS-AIMP3 co-purified protein (hereinafter, MRS+AIMP3 protein) and AIMP3 protein. MRS+AIMP3 or AIMP3 protein was coated on a CM5 chip and the 8A12 antibody was allowed to flow down, thereby measuring the degree of binding response of the protein. An analyte sample or buffer was injected at a flow rate of 30 μl/min for 8 minutes, and washed for 20 minutes.

His-GRS = target: T5, His-GRS (UniProt P41250 55-739); assay: ELISA, coated His-GRS, absorbance at 450 nm
T5 construct: not shown: His tag
T5 sequence (looked up): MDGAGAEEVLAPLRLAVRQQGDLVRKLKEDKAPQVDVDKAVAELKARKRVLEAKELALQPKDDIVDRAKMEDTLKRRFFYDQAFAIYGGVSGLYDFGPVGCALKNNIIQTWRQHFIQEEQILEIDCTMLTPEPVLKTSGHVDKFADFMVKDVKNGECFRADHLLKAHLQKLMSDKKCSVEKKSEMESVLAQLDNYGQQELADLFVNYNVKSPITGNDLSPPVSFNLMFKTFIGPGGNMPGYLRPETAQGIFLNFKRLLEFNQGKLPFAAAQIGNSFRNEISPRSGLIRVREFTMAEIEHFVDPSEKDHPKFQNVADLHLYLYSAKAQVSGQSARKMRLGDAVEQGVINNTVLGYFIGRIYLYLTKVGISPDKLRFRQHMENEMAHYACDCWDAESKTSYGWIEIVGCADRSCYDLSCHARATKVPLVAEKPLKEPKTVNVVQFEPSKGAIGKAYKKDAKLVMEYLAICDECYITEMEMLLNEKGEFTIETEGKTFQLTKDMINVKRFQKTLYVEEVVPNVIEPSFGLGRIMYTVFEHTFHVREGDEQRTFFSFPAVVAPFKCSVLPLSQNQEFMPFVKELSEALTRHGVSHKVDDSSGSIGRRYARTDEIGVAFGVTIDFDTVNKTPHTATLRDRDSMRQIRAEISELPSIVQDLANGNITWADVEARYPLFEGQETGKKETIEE
Protocol: as §1

[3] = target: T6, MRS-AIMP3 co-purified protein (human, UniProt P56192 1-900; O43324 1-174, limits assumed); assay: SPR, MRS+AIMP3 protein coated on CM5 chip, antibody as analyte; MRS+AIMP3 co-purified protein on the CM5 chip, 8A12 antibody as analyte
T6 construct: Complex of MRS and AIMP3, co-expressed in E. coli BL21DE3 and co-purified; also called MRS+AIMP3 protein
T6 sequence 1: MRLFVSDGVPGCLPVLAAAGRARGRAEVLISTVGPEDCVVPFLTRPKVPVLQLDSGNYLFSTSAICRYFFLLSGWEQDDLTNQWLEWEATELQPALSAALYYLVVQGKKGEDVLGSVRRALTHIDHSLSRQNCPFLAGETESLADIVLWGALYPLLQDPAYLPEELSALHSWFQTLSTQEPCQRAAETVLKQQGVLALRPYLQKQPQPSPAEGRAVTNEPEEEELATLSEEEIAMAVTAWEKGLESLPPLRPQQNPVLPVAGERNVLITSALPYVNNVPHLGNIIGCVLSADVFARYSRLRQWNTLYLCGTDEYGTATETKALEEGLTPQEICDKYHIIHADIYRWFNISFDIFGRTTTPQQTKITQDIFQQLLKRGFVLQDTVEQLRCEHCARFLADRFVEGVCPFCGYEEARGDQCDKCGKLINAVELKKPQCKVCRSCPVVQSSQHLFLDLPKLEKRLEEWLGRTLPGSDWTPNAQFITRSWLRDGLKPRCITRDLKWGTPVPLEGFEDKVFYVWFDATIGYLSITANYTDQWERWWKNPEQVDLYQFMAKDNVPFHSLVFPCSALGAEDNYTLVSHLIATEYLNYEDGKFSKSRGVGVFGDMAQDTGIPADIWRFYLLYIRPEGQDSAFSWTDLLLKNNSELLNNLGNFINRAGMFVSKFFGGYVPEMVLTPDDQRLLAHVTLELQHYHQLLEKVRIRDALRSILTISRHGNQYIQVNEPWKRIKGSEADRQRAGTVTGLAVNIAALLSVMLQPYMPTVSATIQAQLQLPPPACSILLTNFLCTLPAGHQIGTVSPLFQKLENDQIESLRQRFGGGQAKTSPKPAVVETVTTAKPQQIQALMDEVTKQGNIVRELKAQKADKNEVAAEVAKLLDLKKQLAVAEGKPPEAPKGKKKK
T6 sequence 2: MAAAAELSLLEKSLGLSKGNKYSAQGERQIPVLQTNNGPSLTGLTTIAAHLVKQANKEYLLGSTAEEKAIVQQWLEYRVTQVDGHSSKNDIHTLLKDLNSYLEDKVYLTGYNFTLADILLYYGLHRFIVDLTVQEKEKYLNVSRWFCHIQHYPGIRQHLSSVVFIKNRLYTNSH
Protocol: as §2

34S-AIMP2 = target: T7, 34S-AIMP2 (UniProt Q13155 1-320); assay: ELISA, coated 34S-AIMP2, absorbance at 450 nm
T7 construct: The meaning of 34S is unknown
T7 sequence (looked up): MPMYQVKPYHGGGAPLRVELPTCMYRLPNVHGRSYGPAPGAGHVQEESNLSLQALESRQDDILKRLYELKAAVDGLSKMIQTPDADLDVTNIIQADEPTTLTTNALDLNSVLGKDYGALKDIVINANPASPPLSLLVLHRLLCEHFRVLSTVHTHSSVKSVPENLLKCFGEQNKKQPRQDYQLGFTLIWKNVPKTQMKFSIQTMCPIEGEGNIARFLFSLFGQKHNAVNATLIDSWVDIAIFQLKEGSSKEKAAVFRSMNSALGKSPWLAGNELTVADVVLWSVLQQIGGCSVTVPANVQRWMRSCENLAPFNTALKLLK
Protocol: as §1

[4] = target: T6, MRS-AIMP3 co-purified protein; assay: SPR, MRS+AIMP3 protein on a CM5 chip, 8A12 antibody as analyte at 0.39 to 200 nM
Protocol: as §2

His-CRS = target: T8, His-CRS (UniProt P49589 1-748); assay: ELISA, coated His-CRS, absorbance at 450 nm
T8 construct: not shown: His tag
T8 sequence (looked up): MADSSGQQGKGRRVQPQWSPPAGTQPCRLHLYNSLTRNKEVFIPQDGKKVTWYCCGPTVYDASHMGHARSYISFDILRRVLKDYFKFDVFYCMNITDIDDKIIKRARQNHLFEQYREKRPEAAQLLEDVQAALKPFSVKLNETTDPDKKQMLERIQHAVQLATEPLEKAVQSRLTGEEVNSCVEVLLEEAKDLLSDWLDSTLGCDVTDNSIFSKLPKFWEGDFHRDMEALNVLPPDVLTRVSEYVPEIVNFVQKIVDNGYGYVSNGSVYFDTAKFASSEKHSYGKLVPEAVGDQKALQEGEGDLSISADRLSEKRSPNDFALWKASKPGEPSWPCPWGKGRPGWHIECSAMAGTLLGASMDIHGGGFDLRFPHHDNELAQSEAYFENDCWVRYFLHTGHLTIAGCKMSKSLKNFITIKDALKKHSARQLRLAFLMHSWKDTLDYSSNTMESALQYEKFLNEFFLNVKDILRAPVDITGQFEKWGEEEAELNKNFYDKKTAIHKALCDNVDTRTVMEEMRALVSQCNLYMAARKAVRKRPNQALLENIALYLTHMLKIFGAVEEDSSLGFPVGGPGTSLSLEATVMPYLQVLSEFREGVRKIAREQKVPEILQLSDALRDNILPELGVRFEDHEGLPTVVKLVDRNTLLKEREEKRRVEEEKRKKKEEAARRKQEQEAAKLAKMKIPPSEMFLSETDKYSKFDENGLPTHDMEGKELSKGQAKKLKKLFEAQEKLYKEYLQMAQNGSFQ
Protocol: as §1

His-AIMP1 = target: T9, His-AIMP1 (UniProt Q12904 1-312, limits assumed); assay: ELISA, coated His-AIMP1, absorbance at 450 nm
T9 construct: not shown: His tag
T9 sequence (looked up): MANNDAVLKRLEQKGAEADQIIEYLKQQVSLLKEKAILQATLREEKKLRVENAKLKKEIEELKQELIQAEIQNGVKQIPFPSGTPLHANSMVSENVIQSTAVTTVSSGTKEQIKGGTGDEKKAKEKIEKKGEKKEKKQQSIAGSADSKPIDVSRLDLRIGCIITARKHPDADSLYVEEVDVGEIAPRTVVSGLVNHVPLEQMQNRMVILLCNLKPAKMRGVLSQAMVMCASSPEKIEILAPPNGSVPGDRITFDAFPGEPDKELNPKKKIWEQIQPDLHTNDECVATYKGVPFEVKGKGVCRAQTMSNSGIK
Protocol: as §1

B1: 8A12 antibody (whole 8A12 IgG antibody) (antibody, V domains shown)
VH: DVKLQESGPGLVKPSQSLSLTCTVTGYSITSEYAWTWIRQFPGNKLEWMGYINYNGNTNLNPSLKSRISIIRDTSKNQFFLQLNSVTTEDTATYYCARSLWPRGWFAYWGQGTLVTVSA
VL: DIQMTQSPSSMYASLGERVTITCKASQDINSYLSWFQQKPGKSPKTLMYRANRLVDGVPSRFSGSGSGQDYSLTISSLEYEDMGIYYCLQYDEFPRTFGGGTKLEIKA
notes: Mouse monoclonal antibody from hybridoma 8A12; It was also made recombinantly in 293F cells with mouse IgG2a heavy and mouse kappa light chain vectors; also called MRS antibody; 8A12 clone expression antibody
binding result [1]: binds
binding result (His-KRS): no binding
binding result (His-WRS): no binding
binding result [2]: no binding (tested: 200 nM)
binding result (His-GRS): no binding
Kd [3]: 1.56 nM
binding result (34S-AIMP2): no binding
koff [4]: 0.000213 s⁻¹
kon [4]: 137000 M⁻¹ s⁻¹
binding result (His-CRS): no binding
binding result (His-AIMP1): no binding
